expression_or_secretion data for 1 protein are collected here from paper PMC11756183.

The data set in a line: IP and western blot in MSC-T. As to conditions: glycan lost; control: wild-type GPNMB (MSC-T/OEG). In general terms: In western blotting, separated proteins are transferred to a membrane and probed.

B1: GPNMB (Glycoprotein non-metastatic melanoma protein B): N249Q (protein)
parent chain: MESLCGVLGFLLLAAGLPLQAAKRFRDVLGHEQYPDHMREHNQLRGWSSDENEWDEHLYPVWRRGDGRWKDSWEGGRVQAVLTSDSPALVGSNITFVVNLVFPRCQKEDANGNIVYEKNCRNDLGLTSDLHVYNWTAGADDGDWEDGTSRSQHLRFPDRRPFPRPHGWKKWSFVYVFHTLGQYFQKLGRCSARVSINTVNLTAGPQVMEVTVFRRYGRAYIPISKVKDVYVITDQIPVFVTMSQKNDRNLSDEIFLRDLPIVFDVLIHDPSHFLNDSAISYKWNFGDNTGLFVSNNHTLNHTYVLNGTFNLNLTVQTAVPGPCPPPSPSTPPPPSTPPSPPPSPLPTLSTPSPSLMPTGYKSMELSDISNENCRINRYGYFRATITIVEGILEVSIMQIADVPMPTPQPANSLMDFTVTCKGATPMEACTIISDPTCQIAQNRVCSPVAVDGLCLLSVRRAFNGSGTYCVNFTLGDDASLALTSTLISIPGKDPDSPLRAVNGVLISIGCLAVLVTMVTILLYKKHKAYKPIGNCPRNTVKGKGLSVLLSHAKAPFFRGDQEKDPLLQDKPRTL
Take B1: the expression_or_secretion entry was “decreases”.
